In PMC2586830 (Molecular Microbiology, 2008):
Read-outs that look alike come from different tables or passages of the source.

B1: CFP–CreB / YFP–CreB, phosphorylated (natural protein)
chain: MQRETVWLVEDEQGIADTLVYMLQQEGFAVEVFERGLPVLDKARKQVPDVMILDVGLPDISGFELCRQLLALHPALPVLFLTARSEEVDRLLGLEIGADDYVAKPFSPREVCARVRTLLRRVKKFSTPSPVIRIGHFELNEPAAQISWFDTPLALTRYEFLLLKTLLKSPGRVWSRQQLMDSVWEDAQDTYDRTVDTHIKTLRAKLRAINPDLSPINTHRGMGYSLRGL
modifications: phosphorylated in vitro with phosphoramidate and MgSO4 (conserved aspartate of the receiver domain; residue number not given)
B2: CFP–CusR / YFP–CusR, phosphorylated (natural protein)
chain: MKLLIVEDEKKTGEYLTKGLTEAGFVVDLADNGLNGYHLAMTGDYDLIILDIMLPDVNGWDIVRMLRSANKGMPILLLTALGTIEHRVKGLELGADDYLVKPFAFAELLARVRTLLRRGAAVIIESQFQVADLMVDLVSRKVTRSGTRITLTSKEFTLLEFFLRHQGEVLPRSLIASQVWDMNFDSDTNAIDVAVKRLRGKIDNDFEPKLIQTVRGVGYMLEVPDGQ
modifications: phosphorylated in vitro with phosphoramidate and MgSO4 (conserved aspartate of the receiver domain; residue number not given)
B3: CFP–KdpE / YFP–KdpE, phosphorylated (natural protein)
chain: MTNVLIVEDEQAIRRFLRTALEGDGMRVFEAETLQRGLLEAATRKPDLIILDLGLPDGDGIEFIRDLRQWSAVPVIVLSARSEESDKIAALDAGADDYLSKPFGIGELQARLRVALRRHSATTAPDPLVKFSDVTVDLAARVIHRGEEEVHLTPIEFRLLAVLLNNAGKVLTQRQLLNQVWGPNAVEHSHYLRIYMGHLRQKLEQDPARPRHFITETGIGYRFML
modifications: phosphorylated in vitro with phosphoramidate and MgSO4 (conserved aspartate of the receiver domain; residue number not given)
B4: CFP–BaeR / YFP–BaeR, phosphorylated (natural protein)
chain: MTELPIDENTPRILIVEDEPKLGQLLIDYLRAASYAPTLISHGDQVLPYVRQTPPDLILLDLMLPGTDGLTLCREIRRFSDIPIVMVTAKIEEIDRLLGLEIGADDYICKPYSPREVVARVKTILRRCKPQRELQQQDAESPLIIDEGRFQASWRGKMLDLTPAEFRLLKTLSHEPGKVFSREQLLNHLYDDYRVVTDRTIDSHIKNLRRKLESLDAEQSFIRAVYGVGYRWEADACRIV
modifications: phosphorylated in vitro with phosphoramidate and MgSO4 (conserved aspartate of the receiver domain; residue number not given)
B5: CFP–TorR / YFP–TorR, phosphorylated (natural protein)
chain: MPHHIVIVEDEPVTQARLQSYFTQEGYTVSVTASGAGLREIMQNQSVDLILLDINLPDENGLMLTRALRERSTVGIILVTGRSDRIDRIVGLEMGADDYVTKPLELRELVVRVKNLLWRIDLARQAQPHTQDNCYRFAGYCLNVSRHTLERDGEPIKLTRAEYEMLVAFVTNPGEILSRERLLRMLSARRVENPDLRTVDVLIRRLRHKLSADLLVTQHGEGYFLAADVC
modifications: phosphorylated in vitro with phosphoramidate and MgSO4 (conserved aspartate of the receiver domain; residue number not given)
B6: CFP–PhoP / YFP–PhoP, phosphorylated (natural protein)
chain: MRVLVVEDNALLRHHLKVQIQDAGHQVDDAEDAKEADYYLNEHIPDIAIVDLGLPDEDGLSLIRRWRSNDVSLPILVLTARESWQDKVEVLSAGADDYVTKPFHIEEVMARMQALMRRNSGLASQVISLPPFQVDLSRRELSINDEVIKLTAFEYTIMETLIRNNGKVVSKDSLMLQLYPDAELRESHTIDVLMGRLRKKIQAQYPQEVITTVRGQGYLFELR
modifications: phosphorylated in vitro with phosphoramidate and MgSO4 (conserved aspartate of the receiver domain; residue number not given)
B7: CFP–CpxR / YFP–CpxR, phosphorylated (natural protein)
chain: MNKILLVDDDRELTSLLKELLEMEGFNVIVAHDGEQALDLLDDSIDLLLLDVMMPKKNGIDTLKALRQTHQTPVIMLTARGSELDRVLGLELGADDYLPKPFNDRELVARIRAILRRSHWSEQQQNNDNGSPTLEVDALVLNPGRQEASFDGQTLELTGTEFTLLYLLAQHLGQVVSREHLSQEVLGKRLTPFDRAIDMHISNLRRKLPDRKDGHPWFKTLRGRGYLMVSAS
modifications: phosphorylated in vitro with phosphoramidate and MgSO4 (conserved aspartate of the receiver domain; residue number not given)
B8: CFP–ArcA / YFP–ArcA, phosphorylated (natural protein)
chain: MQTPHILIVEDELVTRNTLKSIFEAEGYDVFEATDGAEMHQILSEYDINLVIMDINLPGKNGLLLARELREQANVALMFLTGRDNEVDKILGLEIGADDYITKPFNPRELTIRARNLLSRTMNLGTVSEERRSVESYKFNGWELDINSRSLIGPDGEQYKLPRSEFRAMLHFCENPGKIQSRAELLKKMTGRELKPHDRTVDVTIRRIRKHFESTPDTPEIIATIHGEGYRFCGDLED
modifications: phosphorylated in vitro with phosphoramidate and MgSO4 (conserved aspartate of the receiver domain; residue number not given)
B9: CFP–QseB / YFP–QseB, phosphorylated (natural protein)
chain: MRILLIEDDMLIGDGIKTGLSKMGFSVDWFTQGRQGKEALYSAPYDAVILDLTLPGMDGRDILREWREKGQREPVLILTARDALAERVEGLRLGADDYLCKPFALIEVAARLEALMRRTNGQASNELRHGNVMLDPGKRIATLAGEPLTLKPKEFALLELLMRNAGRVLSRKLIEEKLYTWDEEVTSNAVEVHVHHLRRKLGSDFIRTVHGIGYTLGEK
modifications: phosphorylated in vitro with phosphoramidate and MgSO4 (conserved aspartate of the receiver domain; residue number not given)

Assays:
PhoB (Escherichia coli) [1] = biological target: PhoB (Escherichia coli) (UniProt P0AFJ5); details: cited from earlier work
Chain of PhoB (Escherichia coli) (P0AFJ5 whole entry): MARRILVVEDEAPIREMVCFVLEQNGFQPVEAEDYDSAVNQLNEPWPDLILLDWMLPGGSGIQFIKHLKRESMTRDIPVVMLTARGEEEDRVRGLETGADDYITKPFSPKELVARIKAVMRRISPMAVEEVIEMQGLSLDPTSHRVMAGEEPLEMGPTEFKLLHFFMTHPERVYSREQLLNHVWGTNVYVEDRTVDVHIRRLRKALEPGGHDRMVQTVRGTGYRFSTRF

PhoB (Escherichia coli) [2] = biological target: PhoB (Escherichia coli) (UniProt P0AFJ5); test: analytical ultracentrifugation; details: cited from earlier work
FRET or BRET = biological target: the molecule itself; test: FRET or BRET

Molecule | Kd (PhoB (Escherichia coli) [1]) [µM] | Kd (PhoB (Escherichia coli) [2]) [µM] | binding result (FRET or BRET)
PhoB (from UniProt P0AFJ5) | 378 | 5.1 | 
B1 |  |  | binds
B2 |  |  | binds
B3 |  |  | binds
B4 |  |  | binds
B5 |  |  | binds
B6 |  |  | binds
B7 |  |  | binds
B8 |  |  | binds
B9 |  |  | binds
